Literature values as cited in paper PMC7654312.

What was measured:
Lys210 [1] = target: Lys210 (UniProt position 210, VVKVAKLGISE)
Lys210 [2] = test system: Lys210

Row | Substance | pKa (Lys210 [1]) | pKa (Lys210 [2])
1 | Retro-aldolase RA95.0 (computationally designed) (synthetic construct (design on an indole-3-glycerol phosphate synthase TIM-barrel scaffold)) | 8.1 | –
2 | Retro-aldolase RA95.5 (evolved variant of RA95.0) (synthetic construct (design on an indole-3-glycerol phosphate synthase TIM-barrel scaffold); T83K) | – | 7.6
